Patent US10822593B2, “Alcohol dehydrogenase mutant and application thereof in synthesis of diaryl chiral alcohols” (priority 2018, dated 2020)

Tests used:
Format in all cases: biochemical
[1] = biological target: alcohol dehydrogenase KpADH, wild type, SEQ ID No. 2 (Vanderwaltozyma polyspora, UniProt A7TM80); assay: Kinetic analysis, reduction of CPMK by wild type KpADH; details: substrate CPMK, coenzyme NADPH, pH 7.0, 30° C.
Method: (§1) Adopting a total reaction system of 200 μL, including: 1.0 mM NADPH, 1.0 mM substrate CPMK and sodium phosphate buffer (PBS, 100 mM, pH 7.0), fully and evenly mixing, maintaining at 30° C. for 2 min, adding an appropriate amount of enzyme solution, and detecting the change in light absorption at 340 nm.
(§2) The enzyme activity was calculated by the following formula: […]
(§3) in the formula, EW is the change in absorbance at 340 nm in 1 min; V is the volume of a reaction solution in mL; 6220 is the molar extinction coefficient of NADPH in L/(mol·cm); and 1 is the optical path distance in cm. One activity unit (U) corresponds to the amount of enzyme required to catalyze the oxidation of 1 μmol NADPH per minute under the above conditions.
(§4) A column used for purification was a nickel affinity column HisTrap FF crude, and purification was achieved through affinity chromatography using a histidine tag on recombinant protein. The nickel column was equilibrated with a solution A first, a crude enzyme solution was loaded, a penetrating peak was further eluted off using the solution A, and after equilibrium, a solution B (20 mM sodium phosphate, 500 mM NaCl, and 1000 mM imidazole, pH 7.4) was used for gradient elution to elute off the recombinant protein bound to the nickel column, so as to obtain the recombinant alcohol dehydrogenase mutant. The purified protein was subjected to activity measurement (CPMK as substrate, and NADPH as coenzyme) and SDS-PAGE analysis. […] The purified alcohol dehydrogenase protein was then replaced into a Tris-HCl (100 mM, pH 7.0) buffer using a Hi Trap Desalting column (GE Healthcare).
(§5) The activity of KpADH at different substrate concentrations and coenzyme concentrations was determined, and a double reciprocal curve was made based on the reciprocal of activity and substrate concentration to calculate kinetic parameters.

[2] = test system: O=C(c1ccc(Cl)cc1)c1ccccn1; assay: Kinetic analysis, reduction of CPMK by mutant M1; details: other: substrate CPMK, coenzyme NADPH, pH 7.0, 30° C.
Method: In an embodiment of the present disclosure, the mutant includes the substitution of valine for serine at position 196 of the alcohol dehydrogenase with the amino acid sequence shown in SEQ ID No. 2, which is named M1.
as §1, §2, §3, §4, §5

[3] = test system: O=C(c1ccc(Cl)cc1)c1ccccn1; assay: Kinetic analysis, reduction of CPMK by mutant M3; details: other: substrate CPMK, coenzyme NADPH, pH 7.0, 30° C.
Method: In an embodiment of the present disclosure, the mutant includes the substitution of proline for serine at position 196 of the alcohol dehydrogenase with the amino acid sequence shown in SEQ ID No. 2, which is named M3.
as §1, §2, §3, §4, §5

[4] = test system: O=C(c1ccc(Cl)cc1)c1ccccn1; assay: Kinetic analysis, reduction of CPMK by wild type KpADH; details: other: substrate CPMK, coenzyme NADPH, pH 7.0, 30° C.
Method: as §1, §2, §3, §4, §5

[5] = test system: O=C(c1ccc(Cl)cc1)c1ccccn1; assay: Kinetic analysis, reduction of CPMK by mutant M5; details: other: substrate CPMK, coenzyme NADPH, pH 7.0, 30° C.
Method: In an embodiment of the present disclosure, the mutant includes the substitution of glycine for serine at position 196 of the alcohol dehydrogenase with the amino acid sequence shown in SEQ ID No. 2, and the substitution of valine for phenylalanine at position 161, which is named M5.
as §1, §2, §3, §4, §5

[6] = test system: O=C(c1ccc(Cl)cc1)c1ccccn1; assay: Kinetic analysis, reduction of CPMK by mutant M4; details: other: substrate CPMK, coenzyme NADPH, pH 7.0, 30° C.
Method: In an embodiment of the present disclosure, the mutant includes the substitution of glycine for serine at position 196 of the alcohol dehydrogenase with the amino acid sequence shown in SEQ ID No. 2, which is named M4.
as §1, §2, §3, §4, §5

[7] = test system: O=C(c1ccc(Cl)cc1)c1ccccn1; assay: Kinetic analysis, reduction of CPMK by mutant M2; details: other: substrate CPMK, coenzyme NADPH, pH 7.0, 30° C.
Method: In an embodiment of the present disclosure, the mutant includes the substitution of tryptophan for serine at position 196 of the alcohol dehydrogenase with the amino acid sequence shown in SEQ ID No. 2, which is named M2.
as §1, §2, §3, §4, §5

## O=C(c1ccc(Cl)cc1)c1ccccn1 [CPMK, (4-chlorophenyl)-(pyridin-2-yl)-methanone]
[1]
  Kcat/Km: 28.9 s⁻¹ mM⁻¹

## alcohol dehydrogenase KpADH (SEQ ID No. 2) mutant M1, S196V (Vanderwaltozyma polyspora DSM 70294; S196V)
[2]
  Km: 0.72 mM
  Vmax: 21.3 µmol/min/mg
  kcat: 17 s⁻¹
  kcat/Km: 23600 M⁻¹ s⁻¹

## alcohol dehydrogenase KpADH (SEQ ID No. 2) mutant M3, S196P (Vanderwaltozyma polyspora DSM 70294; S196P)
[3]
  Km: 0.604 mM
  Vmax: 22.3 µmol/min/mg
  kcat: 14.8 s⁻¹
  kcat/Km: 24600 M⁻¹ s⁻¹

## alcohol dehydrogenase KpADH, wild type, SEQ ID No. 2 (Vanderwaltozyma polyspora DSM 70294)
[4]
  Km: 0.410 mM
  Vmax: 17.9 µmol/min/mg
  kcat: 11.8 s⁻¹
  kcat/Km: 28900 M⁻¹ s⁻¹

## alcohol dehydrogenase KpADH (SEQ ID No. 2) mutant M5, S196G/F161V (Vanderwaltozyma polyspora DSM 70294; F161V/S196G)
[5]
  Km: 0.69 mM
  Vmax: 17.7 µmol/min/mg
  kcat: 11.8 s⁻¹
  kcat/Km: 17100 M⁻¹ s⁻¹

## alcohol dehydrogenase KpADH (SEQ ID No. 2) mutant M4, S196G (Vanderwaltozyma polyspora DSM 70294; S196G)
[6]
  Km: 0.730 mM
  Vmax: 26.5 µmol/min/mg
  kcat: 17.6 s⁻¹
  kcat/Km: 24100 M⁻¹ s⁻¹

## alcohol dehydrogenase KpADH (SEQ ID No. 2) mutant M2, S196W (Vanderwaltozyma polyspora DSM 70294; S196W)
[7]
  Km: 0.702 mM
  Vmax: 21.3 µmol/min/mg
  kcat: 14.2 s⁻¹
  kcat/Km: 20300 M⁻¹ s⁻¹
